Laboratory results as given in patent US20180148485A1 (Pieris, published 2018).
Read-outs that look alike come from different tables or passages of the source. One block for each binder: values may come before it.

What was measured:
[1] = biological target: T1, recombinant human GPC3 (R&D Systems #2119-GP-050/CF) (human, UniProt P51654 25-559); assay: ELISA, GPC3 coated, anti-NGAL-HRP detection
T1 construct: also called Glypican-3; biotinylated human GPC3
Excerpt: (§1) GPC3 was coated on a microtiter plate and the tested molecules were titrated. Bound molecules were detected via an HRP-labeled human NGAL-specific antibody as described in Example 14. The data was fitted with a 1:1 binding model with EC50 value and the maximum signal as free parameters, and a slope that was fixed to unity.

[2] = biological target: T2, recombinant human CD137-Fc fusion protein (#838-4B-100, R&D Systems) (human, UniProt Q07011 24-186); assay: ELISA, CD137-Fc coated, as described in Example 3
T2 construct: also called Fc-fusion of human CD137; not shown: Fc part of the bought fusion protein, not described

[3] = biological target: T2, recombinant human CD137-Fc fusion …; assay: SPR, CD137-Fc captured by anti-human Fc antibody on CM5 chip, 1:1 model
Description: Binding affinities of the CD137-binding lipocalin mutein and the bispecific polypeptides of SEQ ID NO: 46 and SEQ ID NO: 47 to recombinant human CD137-Fc fusion protein (#838-4B-100, R&D Systems) were determined by Surface Plasmon Resonance using a Biacore T200 instrument (GE Healthcare) in analogy to Example 6. Prior to the SPR affinity assay, a CM5 sensor chip was derivatized with an anti-human Fc antibody using the Human Antibody Capture Kit (GE Healthcare # BR-1008-39) according to the manufacturer's instructions.
Four different concentrations (1000 nM, 200 nM, 40 nM and 8 nM) of the bispecific polypeptides were prepared in running buffer (10 mM HEPES, 150 mM NaCl, 0.05% v/v Surfactant P20, 3 mM EDTA, pH 7.4 (GE Healthcare)) and applied to the chip surface. Applying a flow rate of 30 μL/min, the sample contact time was 180 s and dissociation time was 600 s. All measurements were performed at 25° C. […] Prior to the protein measurements three regeneration cycles were performed for conditioning purposes. Data were evaluated with Biacore T200 Evaluation software (V 2.0). Double referencing was used and the 1:1 Binding model was used to fit the raw data.

[4] = biological target: T1, recombinant human GPC3 (R&D Systems …); assay: SPR, biotinylated fusion captured on CAP chip, GPC3 as analyte (11-300 nM)
Description: The data were double-referenced by subtraction of the corresponding signals measured for the control channel (loaded with Biotin CAPture reagent only) and by subtraction of buffer injections from the binding responses. Association rate constant kₐ and dissociation rate constant kd for the binding reaction were determined using Biacore T200 Evaluation Software V2.0 for data processing and kinetic fitting.

[5] = biological target: T2, recombinant human CD137-Fc fusion …; assay: dual-binding ELISA: CD137-Fc coated, fusion titrated, biotinylated GPC3 detected with Extravidin-HRP
Description: FIG. 16: provides a representative experiment in which the ability of two bispecific fusion polypeptides of SEQ ID NO: 46 and SEQ ID NO: 47 to bind the targets, GPC3 and CD137, simultaneously was determined. Recombinant CD137-Fc fusion protein was coated on a microtiter plate, followed by a titration of the fusion protein. Subsequently, a constant concentration of biotinylated human GPC3 was added, which was detected via HRP-labeled extravidin as described in Example 16. The data was fitted with a 1:1 binding model with EC50 value and the maximum signal as free parameters, and a slope that was fixed to unity.
The result of the experiment is depicted in FIG. 16, together with the fit curves resulting from a 1:1 binding sigmoidal fit, where the EC50 value and the maximum signal were free parameters, and the slope was fixed to unity.

[6] = biological target: T1, recombinant human GPC3 (R&D Systems …); assay: ELISA, GPC3 coated, anti-NGAL-HRP detection; remark: listed apart in the source
Excerpt: as §1, with “anti-human” for “human”, “12.” for “14.”

[7] = biological target: T2, recombinant human CD137-Fc fusion …; assay: ELISA, CD137-Fc coated, anti-human IgG-HRP detection
Description: The antibody of SEQ ID NOs: 34 and 35 served as the positive control. The target was dissolved in PBS (1 μg/mL) and coated overnight on microtiter plates at 4° C. The plate was washed after each incubation step with 100 μL PBS-T five times. The plates were blocked with 2% BSA (w/v) in PBS-T for 1 h at room temperature and subsequently washed. Different concentrations of the CD137-specific antibody or the fusion polypeptides were added to the wells and incubated for 1 h at room temperature, followed by a wash step. Bound fusion protein was detected after incubation for 1 h at room temperature with 1:5000 diluted mouse anti-human IgG Fab antibody conjugated to HRP (Jackson Laboratories) in PBS-TB. After an additional wash step, fluorogenic HRP substrate (QuantaBlu, Thermo) was added to each well and the fluorescence intensity was detected using a fluorescence microplate reader.
The result of the experiment is depicted in FIG. 3, together with the fit curves resulting from a 1:1 binding sigmoidal fit, where the EC50 value and the maximum signal were free parameters, and the slope was fixed to unity.

[8] = biological target: T2, recombinant human CD137-Fc fusion …; assay: SPR, biotinylated CD137-Fc captured on CAP chip, 1:1 model, apparent affinity
Description: Briefly, biotinylated CD137-Fc was captured on a sensor chip CAP and four dilutions (20, 5, 1.3 and 0.3 nM) of each tested agent (fusion protein or SEQ ID NOs: 34 and 35) were prepared in running buffer and applied to the chip surface. Applying a flow rate of 30 μL/min, the sample contact time was 180 s and dissociation time was 600 s. All measurements were otherwise performed and analyzed as described in Example 5.

T1 sequence (P51654 25-559 limits assumed): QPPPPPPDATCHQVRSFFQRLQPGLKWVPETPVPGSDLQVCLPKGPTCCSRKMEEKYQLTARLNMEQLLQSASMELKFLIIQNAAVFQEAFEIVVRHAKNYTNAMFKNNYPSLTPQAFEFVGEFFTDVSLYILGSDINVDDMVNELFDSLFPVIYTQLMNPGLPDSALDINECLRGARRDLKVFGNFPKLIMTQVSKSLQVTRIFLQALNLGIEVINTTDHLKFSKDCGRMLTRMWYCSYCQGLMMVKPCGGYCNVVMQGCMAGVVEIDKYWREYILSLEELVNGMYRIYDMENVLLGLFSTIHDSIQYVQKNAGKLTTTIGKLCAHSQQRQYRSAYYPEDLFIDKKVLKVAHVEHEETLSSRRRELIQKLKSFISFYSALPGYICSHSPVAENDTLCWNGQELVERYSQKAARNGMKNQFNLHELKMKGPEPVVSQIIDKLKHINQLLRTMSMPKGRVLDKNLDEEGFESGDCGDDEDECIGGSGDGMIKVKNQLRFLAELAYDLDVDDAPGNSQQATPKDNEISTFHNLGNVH

EC50 [1]: 0.16 nM | EC50 [2]: 0.26 nM | Kd [3]: 0.0006 nM | Kd [4]: 3.5 nM | EC50 [5]: 7.47 nM
B1: bispecific fusion polypeptide of SEQ ID NO: 47 (designed binder)
chain: QDSTSDLIPAPPLSKVPLQQNFQDNQFQGKWYVVGVAGNGMLREDKDPLKMRATIYELKEDKSYDVTSVAFRNKKCHYKIGTFVPGSQPGEFTLGQIKSGPGETSNLVRVVSTNYNQHAMVFFKEVRQNREWFFITLYGRTKELTSELKENFIRFSKSLGLPENHIVFPVPIDQCIDGGGGGSGGGGSQDSTSDLIPAPPLSKVPLQQNFQDNQFHGKWYVVGQAGNIRLREDKDPIKMMATIYELKEDKSYDVTMVKFDDKKCMYDIWTFVPGSQPGEFTLGKIKSFPGHTSSLVRVVSTNYNQHAMVFFKFVFQNREEFYITLYGRTKELTSELKENFIRFSKSLGLPENHIVFPVPIDQCIDGGGGGSGGGGSQDSTSDLIPAPPLSKVPLQQNFQDNQFHGKWYVVGQAGNIRLREDKDPIKMMATIYELKEDKSYDVTMVKFDDKKCMYDIWTFVPGSQPGEFTLGKIKSFPGHTSSLVRVVSTNYNQHAMVFFKFVFQNREEFYITLYGRTKELTSELKENFIRFSKSLGLPENHIVFPVPIDQCIDG

EC50 [1]: 0.24 nM
B2: lipocalin mutein of SEQ ID NO: 8 (designed binder)
chain: QDSTSDLIPAPPLSKVPLQQNFQDNQFQGKWYVVGVAGNGMLREDKDPLKMRATIYELKEDKSYDVTSVAFRNKKCHYKIGTFVPGSQPGEFTLGQIKSGPGETSNLVRVVSTNYNQHAMVFFKEVRQNREWFFITLYGRTKELTSELKENFIRFSKSLGLPENHIVFPVPIDQCIDG

EC50 [6]: 0.62 nM
B3: fusion polypeptide of SEQ ID NOs: 53 and 54 (bispecific antibody, human IgG2, lambda)
chain 1: EVQLVQSGAEVKKPGESLRISCKGSGYSFSTYWISWVRQMPGKGLEWMGKIYPGDSYTNYSPSFQGQVTISADKSISTAYLQWSSLKASDTAMYYCARGYGIFDYWGQGTLVTVSSASTKGPSVFPLAPCSRSTSESTAALGCLVKDYFPEPVTVSWNSGALTSGVHTFPAVLQSSGLYSLSSVVTVPSSNFGTQTYTCNVDHKPSNTKVDKTVERKCCVECPPCPAPPVAGPSVFLFPPKPKDTLMISRTPEVTCVVVDVSHEDPEVQFNWYVDGVEVHNAKTKPREEQFNSTFRVVSVLTVVHQDWLNGKEYKCKVSNKGLPAPIEKTISKTKGQPREPQVYTLPPSREEMTKNQVSLTCLVKGFYPSDIAVEWESNGQPENNYKTTPPMLDSDGSFFLYSKLTVDKSRWQQGNVFSCSVMHEALHNHYTQKSLSLSPGKGGGGSGGGGSGGGGSQDSTSDLIPAPPLSKVPLQQNFQDNQFQGKWYVVGRAGNVGLREDKDPPKMWATIYELKEDKSYDVTNVRFARKKCTYSIGTFVPGSQPGEFTLGQIKSEPGGTANLVRVVSTNYNQHAMVFFKEVYQNREIFFIILYGRTKELTSELKENFIRFSKSLGLPENHIVFPVPIDQCIDG
chain 2: SYELTQPPSVSVSPGQTASITCSGDNIGDQYAHWYQQKPGQSPVLVIYQDKNRPSGIPERFSGSNSGNTATLTISGTQAMDEADYYCATYTGFGSLAVFGGGTKLTVLGQPKAAPSVTLFPPSSEELQANKATLVCLISDFYPGAVTVAWKADSSPVKAGVETTTPSKQSNNKYAASSYLSLTPEQWKSHRSYSCQVTHEGSTVEKTVAPTECS

EC50 [7]: 1.5 nM | Kd [8]: 0.092 nM
B4: CD137-specific antibody of SEQ ID NOs: 34 and 35 (antibody, human IgG4 S228P, kappa, V domains shown)
VH: QVQLQQWGAGLLKPSETLSLTCAVYGGSFSGYYWSWIRQSPEKGLEWIGEINHGGYVTYNPSLESRVTISVDTSKNQFSLKLSSVTAADTAVYYCARDYGPGNYDWYFDLWGRGTLVTVSS
VL: EIVLTQSPATLSLSPGERATLSCRASQSVSSYLAWYQQKPGQAPRLLIYDASNRATGIPARFSGSGSGTDFTLTISSLEPEDFAVYYCQQRSNWPPALTFGGGTKVEIKR
notes: also called antibody 20H4.9

EC50 [1]: 0.14 nM | EC50 [2]: 0.2 nM | Kd [3]: 0.0016 nM | Kd [4]: 4.3 nM | EC50 [5]: 7.3 nM
B5: bispecific fusion polypeptide of SEQ ID NO: 46 (designed binder)
chain: QDSTSDLIPAPPLSKVPLQQNFQDNQFQGKWYVVGVAGNGMLREDKDPLKMRATIYELKEDKSYDVTSVAFRNKKCHYKIGTFVPGSQPGEFTLGQIKSGPGETSNLVRVVSTNYNQHAMVFFKEVRQNREWFFITLYGRTKELTSELKENFIRFSKSLGLPENHIVFPVPIDQCIDGGGGGSGGGGSQDSTSDLIPAPPLSKVPLQQNFQDNQFHGKWYVVGQAGNIRLREDKDPIKMMATIYELKEDKSYDVTMVKFDDKKCMYDIWTFVPGSQPGEFTLGKIKSFPGHTSSLVRVVSTNYNQHAMVFFKFVFQNREEFYITLYGRTKELTSELKENFIRFSKSLGLPENHIVFPVPIDQCIDG
